From patent publication US20200283523A1 (WUXI BIOLOGICS IRELAND, published 2020)

Tests used:
human CD3 [1] = target: T1, human CD3 (human, UniProt P07766 23-207); assay: flow cytometry on Jurkat cells
T1 construct: whole, on cells; On cells CD3 stands as the full CD3/TCR complex; also called CD3 on Jurkat cells

FcRn = FcRn (UniProt P55899 24-297; P61769 21-119, limits assumed); assay: SPR (Biacore) at pH 6.0, antibody immobilized, FcRn injected, steady state fit
Protocol: Antibody binding affinity to FcRn was detected using Biacore T200 (or Biacore 8K). Each antibody was immobilized on CMS sensor chip (GE). FcRn at different concentrations in running buffer (50 mM Na2HPO4/NaH2PO4, 150 mM NaCl, 0.05% Tween20, pH 6.0) were injected over the sensor chip at a flow rate of 30 uL/min for an association phase of 60 s, followed by 60 s dissociation. The chip was then regenerated by 1×PBS (pH 7.4) after each binding cycle.
The binding of W3438-T3U4.E17-1.uIgG4.SP to FcRn was tested by SPR at pH 6.0.

human CD19 = target: T2, human CD19 (human, UniProt P15391 20-556); assay: flow cytometry affinity on Ramos cells, bound/free versus bound plot; Ramos cells, CD19
T2 construct: whole, on cells; also called CD19 on Ramos cells; CD19 on Raji cells
T2 sequence (looked up): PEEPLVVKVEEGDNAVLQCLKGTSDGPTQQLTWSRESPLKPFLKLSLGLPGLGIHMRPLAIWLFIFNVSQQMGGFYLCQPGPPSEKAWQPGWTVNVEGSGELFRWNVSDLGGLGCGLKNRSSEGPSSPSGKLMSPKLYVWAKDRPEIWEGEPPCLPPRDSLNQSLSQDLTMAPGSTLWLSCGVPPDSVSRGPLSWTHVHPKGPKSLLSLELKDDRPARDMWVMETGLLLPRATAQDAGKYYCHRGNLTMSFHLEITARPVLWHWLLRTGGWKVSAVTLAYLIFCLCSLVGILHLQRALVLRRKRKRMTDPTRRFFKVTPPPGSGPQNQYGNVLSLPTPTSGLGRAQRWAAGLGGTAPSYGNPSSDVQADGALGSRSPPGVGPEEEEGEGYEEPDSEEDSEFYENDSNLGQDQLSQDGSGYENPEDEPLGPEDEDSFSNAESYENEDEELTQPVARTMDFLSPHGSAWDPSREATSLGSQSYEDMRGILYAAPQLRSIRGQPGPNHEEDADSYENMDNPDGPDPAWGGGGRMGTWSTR
Protocol: (§1) Binding affinity to CD3 and CD19 was determined by flow cytometry using Jurkat and Ramos cells, respectively. The cells were transferred in to 96-well U-bottom plates (BD) at a density of 5×10⁴ cells/well. Antibodies to be tested were 1:2-fold serially diluted in 1% 1×PBS/1% BSA and incubated with cells at 4° C. for 1 hr. Then, the plates were centrifuged at 1500 rpm for 4 mins and the supernatant discarded. The secondary antibody, Alexa647 conjugated goat anti-human IgG Fc (Jackson, Cat #109-605-098) or FITC conjugated goat anti-His (Bethyl, Cat # A190-113F) was added to re-suspended cells and incubated at 4° C. in the dark for 30 min. The cells were washed once and re-suspended in 100 μL 1×PBS/1% BSA. Fluorescence intensity was measured by flow cytometry (BD Canto II) and analyzed by FlowJo. Fluorescence intensity was converted to bound molecules/cell based on the quantitative beads (Quantum™ MESF Kits, Bangs Laboratories). KD was calculated by Graphpad Prism5.
(§2) The binding affinity of W3438-T3U4.E17-1.uIgG4.SP to human CD19 and CD3 was tested on Ramos and Jurkat cells by flow cytometry. The bound IgG/free IgG versus bound IgG was plotted in FIGS. 14A-14B.

human CD3 [2] = target: T1, human CD3; assay: flow cytometry affinity on Jurkat cells, bound/free versus bound plot; Jurkat cells, CD3
Protocol: as §1, §2

C1Q = target: T3, C1Q (UniProt P02745 23-245; P02746 28-253; P02747 29-245); assay: ELISA, antibody coated on the plate, C1q titrated (axis [C1q] nM), anti-human C1q-HRP detection
T3 construct: also called Clq
Protocol: ELISA Plates (Nunc) were coated with antibody samples at 3 μg/mL overnight at 4° C. After blocking and washing, C1q was gradient diluted starting from 600 μg/mL and incubated at room temperature for 2 hr. The plates were then washed and subsequently incubated with sheep anti-human C1q Ab-HRP for 1 hr. After washing, TMB substrate was added and the interaction was stopped by 2 M HCl. The absorbance at 450 nm was read using a microplate reader (Molecular Device).
The binding activity of antibodies to C1Q was tested by ELISA.

T1 sequence (P07766 23-207): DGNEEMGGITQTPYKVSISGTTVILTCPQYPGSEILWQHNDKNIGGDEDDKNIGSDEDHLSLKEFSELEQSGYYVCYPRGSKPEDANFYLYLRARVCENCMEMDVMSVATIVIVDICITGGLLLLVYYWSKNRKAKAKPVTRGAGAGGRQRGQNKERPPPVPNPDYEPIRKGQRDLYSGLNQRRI
T3 sequence (P02745 23-245 limits assumed, chain 1 of 3): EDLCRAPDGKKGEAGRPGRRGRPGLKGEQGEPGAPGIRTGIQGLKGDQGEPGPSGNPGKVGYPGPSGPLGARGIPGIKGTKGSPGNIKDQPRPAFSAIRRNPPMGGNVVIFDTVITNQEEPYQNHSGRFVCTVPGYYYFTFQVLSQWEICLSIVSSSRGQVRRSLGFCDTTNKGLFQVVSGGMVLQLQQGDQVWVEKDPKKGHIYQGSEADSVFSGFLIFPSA
T3 sequence (P02746 28-253 limits assumed, chain 2 of 3): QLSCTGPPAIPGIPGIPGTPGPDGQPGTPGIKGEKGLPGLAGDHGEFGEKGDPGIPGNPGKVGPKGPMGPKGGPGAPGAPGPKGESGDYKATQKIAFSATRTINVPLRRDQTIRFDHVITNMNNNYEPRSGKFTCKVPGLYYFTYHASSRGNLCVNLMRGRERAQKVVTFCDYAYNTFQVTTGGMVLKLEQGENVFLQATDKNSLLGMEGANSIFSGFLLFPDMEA
T3 sequence (P02747 29-245 limits assumed, chain 3 of 3): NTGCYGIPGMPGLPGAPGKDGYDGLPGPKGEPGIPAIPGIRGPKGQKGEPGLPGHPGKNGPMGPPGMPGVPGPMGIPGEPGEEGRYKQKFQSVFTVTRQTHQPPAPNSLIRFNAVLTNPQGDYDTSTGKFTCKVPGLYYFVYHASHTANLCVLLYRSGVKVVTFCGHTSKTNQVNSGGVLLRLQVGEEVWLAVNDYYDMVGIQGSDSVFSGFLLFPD

EC50 (human CD3 [1]): 47 nM
Kd (FcRn): 2580 nM
Kd (human CD19): 23 nM
Kd (human CD3 [2]): 9 nM
binding result (C1Q): no binding (tested: about 1500 nM C1q)
B1: W3438-T3U4.E17-1.uIgG4.SP (bispecific antibody)
light 1: DIVMTQSPDSLAVSLGERATINCKSSQSLLNSRTRKNYLAWYQQKPGQPPKLLIYWASTRQSGVPDRFSGSGSGTDFTLTISSLQAEDVAVYYCTQSHTLRTFGGGTKVEIKPDIQNPDPAVYQLRDSKSSDKSVCLFTDFDSQTQVSQSKDSDVYITDKCVLDMRSMDFKSNSAVAWSQKSDFACANAFQNSIIPEDTFFPSPESS
heavy 1: QVQLVQSGAEVKKPGSSVKVSCKASGFAFTDYYIHWVRQAPGQGLEWMGWISPGNVNTKYNENFKGRVTITADKSTSTAYMELSSLRSEDTAVYYCARDGYSLYYFDYWGQGTLVTVLEDLKNVFPPEVAVFEPSEAEISHTQKATLVCLATGFYPDHVELSWWVNGKEVHSGVCTDPQPLKEQPALQDSRYALSSRLRVSATFWQNPRNHFRCQVQFYGLSENDEWTQDRAKPVTQIVSAEAWGRYGPPCPPCPAPEFLGGPSVFLFPPKPKDTLMISRTPEVTCVVVDVSQEDPEVQFNWYVDGVEVHNAKTKPREEQFNSTYRVVSVLTVLHQDWLNGKEYKCKVSNKGLPSSIEKTISKAKGQPREPQVYTLPPCQEEMTKNQVSLWCLVKGFYPSDIAVEWESNGQPENNYKTTPPVLDSDGSFFLYSRLTVDKSRWQEGNVFSCSVMHEALHNHYTQKSLSLSLGK
light 2: DIQLTQSPSFLSASVGDRVTITCSASSTVNYMHWYQQKPGKAPKLLIYSTSNLASGVPSRFSGSGSGTEFTLTISSLQPEDFATYYCHQWSSYPYTFGQGTKLEIKRTVAAPSVFIFPPSDEQLKSGTASVVCLLNNFYPREAKVQWKVDNALQSGNSQESVTEQDSKDSTYSLSSTLTLSKADYEKHKVYACEVTHQGLSSPVTKSFNRGEC
heavy 2: QMQLVQSGPEVKKPGTSVKVSCKASGYAFTSYNMYWVRQARGQRLEWIGYIDPYNGDTTYNQKFKGRVTITRDMSTSTAYMELSSLRSEDTAVYYCLTTAYAMDYWGQGTLVTVSSASTKGPSVFPLAPCSRSTSESTAALGCLVKDYFPEPVTVSWNSGALTSGVHTFPAVLQSSGLYSLSSVVTVPSSSLGTKTYTCNVDHKPSNTKVDKRVESKYGPPCPPCPAPEFLGGPSVFLFPPKPKDTLMISRTPEVTCVVVDVSQEDPEVQFNWYVDGVEVHNAKTKPREEQFNSTYRVVSVLTVLHQDWLNGKEYKCKVSNKGLPSSIEKTISKAKGQPREPQVCTLPPSQEEMTKNQVSLSCAVKGFYPSDIAVEWESNGQPENNYKTTPPVLDSDGSFFLVSRLTVDKSRWQEGNVFSCSVMHEALHNHYTQKSLSLSLGK
notes: Bispecific, bivalent: one anti-CD3 arm with TCR constant domains and one native anti-CD19 Fab arm, IgG4 S228P Fc with knobs-into-holes; also called WBP3438; CD3×CD19 bispecific antibody; copies: 1 + 1 + 1 + 1
